Experimental data: article PMC11053944, “FRET Assays for the Identification of C. albicans HSP90-Sba1 and Human HSP90α-p23 Binding Inhibitors” (Pharmaceuticals, 2024)

How the values were obtained:
[1] = target: C. albicans HSP90 (without fluorescent protein) (C. albicans) (UniProt P46598)
[2] = target: C. albicans HSP90 (without fluorescent protein) (C. albicans) (UniProt P46598); remark: listed apart in the source

## C. albicans Aha1 (from UniProt A0A1D8PU72 1-346) (natural protein)
[1]
  HSP90 ATPase activity (ADP-Glo), 2.5 µM HSP90 with Aha1 (20 µM) and Sba1 (20 µM) together, 1 mM ATP; fold of HSP90 alone: 1.9 fold
[2]
  HSP90 ATPase activity (ADP-Glo), 2.5 µM HSP90 with 1-20 µM Aha1, 1 mM ATP, 1 h at 30 °C; fold of HSP90 alone: 7 fold
